{
  "source": "paper PMC6018666",
  "about": "“Structural basis for terminal loop recognition and stimulation of pri-miRNA-18a processing by hnRNP A1”",
  "binders": {"B1": {"name": "pri-mir-18a 71-mer (structured_RNA)", "RNA": "GGUUCUAAGGUGCAUCUAGUGCAGAUAGUGAAGUAGAUUAGCAUCUACUGCCCUAAGUGCUCCUUCUGGCC"}},
  "key": {"hnRNP A1 RRM1 [1]": {"target": "T1, hnRNP A1 RRM1 (UniProt P09651 1-97)", "T1 sequence (P09651 1-97)": "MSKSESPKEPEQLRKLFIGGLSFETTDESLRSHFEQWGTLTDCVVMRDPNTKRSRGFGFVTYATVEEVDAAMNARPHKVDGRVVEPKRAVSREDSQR", "assay": "EMSA; ITC: 20 mM Na phosphate pH 6.5, 100 mM NaCl, no DTT, 25 C; EMSA: 100 mM KCl, 20% glycerol, 0.2 mM EDTA, 100 mM Tris pH 8.0, 0.5 mM DTT, 0.5 mM ATP, 20 mM creatine phosphate, 3.2 mM MgCl2, 4 C; footprint: 12 mM Tris-HCl pH 7.5, 48 mM NaCl, 1.2 mM MgCl2, 37 C", "details": "protein: recombinant; tags: His tag removed by TEV; label: internal radiolabel"}, "UP1 (hnRNP A1 RRM1-RRM2) [2]": {"target": "T2, UP1 (hnRNP A1 RRM1-RRM2) (UniProt P09651 1-196)", "T2 sequence (P09651 1-196)": "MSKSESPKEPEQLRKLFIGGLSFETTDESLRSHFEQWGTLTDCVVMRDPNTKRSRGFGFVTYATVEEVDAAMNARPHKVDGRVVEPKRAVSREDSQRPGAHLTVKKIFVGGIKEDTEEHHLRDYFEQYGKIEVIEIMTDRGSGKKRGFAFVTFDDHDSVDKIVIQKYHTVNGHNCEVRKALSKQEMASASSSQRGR", "assay": "EMSA; ITC: 20 mM Na phosphate pH 6.5, 100 mM NaCl, no DTT, 25 C; EMSA: 100 mM KCl, 20% glycerol, 0.2 mM EDTA, 100 mM Tris pH 8.0, 0.5 mM DTT, 0.5 mM ATP, 20 mM creatine phosphate, 3.2 mM MgCl2, 4 C; footprint: 12 mM Tris-HCl pH 7.5, 48 mM NaCl, 1.2 mM MgCl2, 37 C", "details": "protein: recombinant; tags: His tag removed by TEV; label: internal radiolabel"}, "hnRNP A1 RRM2 [3]": {"target": "T3, hnRNP A1 RRM2 (UniProt P09651 94-196)", "T3 sequence (P09651 94-196)": "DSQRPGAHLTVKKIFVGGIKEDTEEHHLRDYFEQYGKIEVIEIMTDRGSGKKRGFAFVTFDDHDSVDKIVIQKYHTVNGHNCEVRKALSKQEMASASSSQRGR", "assay": "EMSA; ITC: 20 mM Na phosphate pH 6.5, 100 mM NaCl, no DTT, 25 C; EMSA: 100 mM KCl, 20% glycerol, 0.2 mM EDTA, 100 mM Tris pH 8.0, 0.5 mM DTT, 0.5 mM ATP, 20 mM creatine phosphate, 3.2 mM MgCl2, 4 C; footprint: 12 mM Tris-HCl pH 7.5, 48 mM NaCl, 1.2 mM MgCl2, 37 C", "details": "protein: recombinant; tags: His tag removed by TEV; label: internal radiolabel"}, "UP1 (hnRNP A1 RRM1-RRM2) [4]": {"target": "T2, UP1 (hnRNP A1 RRM1-RRM2)", "assay": "ITC; N=1.08; ITC: 20 mM Na phosphate pH 6.5, 100 mM NaCl, no DTT, 25 C; EMSA: 100 mM KCl, 20% glycerol, 0.2 mM EDTA, 100 mM Tris pH 8.0, 0.5 mM DTT, 0.5 mM ATP, 20 mM creatine phosphate, 3.2 mM MgCl2, 4 C; footprint: 12 mM Tris-HCl pH 7.5, 48 mM NaCl, 1.2 mM MgCl2, 37 C", "details": "protein: recombinant; tags: His tag removed by TEV; single strand"}, "UP1 (hnRNP A1 RRM1-RRM2) [5]": {"target": "T2, UP1 (hnRNP A1 RRM1-RRM2)", "assay": "ITC; N=1.07; ITC: 20 mM Na phosphate pH 6.5, 100 mM NaCl, no DTT, 25 C; EMSA: 100 mM KCl, 20% glycerol, 0.2 mM EDTA, 100 mM Tris pH 8.0, 0.5 mM DTT, 0.5 mM ATP, 20 mM creatine phosphate, 3.2 mM MgCl2, 4 C; footprint: 12 mM Tris-HCl pH 7.5, 48 mM NaCl, 1.2 mM MgCl2, 37 C", "details": "protein: recombinant, tags: His tag removed by TEV"}, "UP1 (hnRNP A1 RRM1-RRM2) [6]": {"target": "T2, UP1 (hnRNP A1 RRM1-RRM2)", "assay": "ITC; N=0.98; ITC: 20 mM Na phosphate pH 6.5, 100 mM NaCl, no DTT, 25 C; EMSA: 100 mM KCl, 20% glycerol, 0.2 mM EDTA, 100 mM Tris pH 8.0, 0.5 mM DTT, 0.5 mM ATP, 20 mM creatine phosphate, 3.2 mM MgCl2, 4 C; footprint: 12 mM Tris-HCl pH 7.5, 48 mM NaCl, 1.2 mM MgCl2, 37 C", "details": "protein: recombinant; tags: His tag removed by TEV; single strand"}, "hnRNP A1 RRM2 [7]": {"target": "T3, hnRNP A1 RRM2", "assay": "ITC; N=1.09; text gives 6.9; ITC: 20 mM Na phosphate pH 6.5, 100 mM NaCl, no DTT, 25 C; EMSA: 100 mM KCl, 20% glycerol, 0.2 mM EDTA, 100 mM Tris pH 8.0, 0.5 mM DTT, 0.5 mM ATP, 20 mM creatine phosphate, 3.2 mM MgCl2, 4 C; footprint: 12 mM Tris-HCl pH 7.5, 48 mM NaCl, 1.2 mM MgCl2, 37 C", "details": "protein: recombinant; tags: His tag removed by TEV; single strand"}, "UP1 (hnRNP A1 RRM1-RRM2) [8]": {"target": "T2, UP1 (hnRNP A1 RRM1-RRM2)", "assay": "ITC; N=0.75; ITC: 20 mM Na phosphate pH 6.5, 100 mM NaCl, no DTT, 25 C; EMSA: 100 mM KCl, 20% glycerol, 0.2 mM EDTA, 100 mM Tris pH 8.0, 0.5 mM DTT, 0.5 mM ATP, 20 mM creatine phosphate, 3.2 mM MgCl2, 4 C; footprint: 12 mM Tris-HCl pH 7.5, 48 mM NaCl, 1.2 mM MgCl2, 37 C", "details": "protein: recombinant; tags: His tag removed by TEV; single strand"}, "hnRNP A1 RRM1 [9]": {"target": "T1, hnRNP A1 RRM1", "assay": "ITC; N=1.01; ITC: 20 mM Na phosphate pH 6.5, 100 mM NaCl, no DTT, 25 C; EMSA: 100 mM KCl, 20% glycerol, 0.2 mM EDTA, 100 mM Tris pH 8.0, 0.5 mM DTT, 0.5 mM ATP, 20 mM creatine phosphate, 3.2 mM MgCl2, 4 C; footprint: 12 mM Tris-HCl pH 7.5, 48 mM NaCl, 1.2 mM MgCl2, 37 C", "details": "protein: recombinant; tags: His tag removed by TEV; single strand"}, "UP1 (hnRNP A1 RRM1-RRM2) [10]": {"target": "T2, UP1 (hnRNP A1 RRM1-RRM2)", "assay": "ITC; N=1.35; ITC: 20 mM Na phosphate pH 6.5, 100 mM NaCl, no DTT, 25 C; EMSA: 100 mM KCl, 20% glycerol, 0.2 mM EDTA, 100 mM Tris pH 8.0, 0.5 mM DTT, 0.5 mM ATP, 20 mM creatine phosphate, 3.2 mM MgCl2, 4 C; footprint: 12 mM Tris-HCl pH 7.5, 48 mM NaCl, 1.2 mM MgCl2, 37 C", "details": "protein: recombinant; tags: His tag removed by TEV; hairpin"}, "UP1 (hnRNP A1 RRM1-RRM2) [11]": {"target": "T2, UP1 (hnRNP A1 RRM1-RRM2)", "assay": "ITC; not fitted by one-site model; ITC: 20 mM Na phosphate pH 6.5, 100 mM NaCl, no DTT, 25 C; EMSA: 100 mM KCl, 20% glycerol, 0.2 mM EDTA, 100 mM Tris pH 8.0, 0.5 mM DTT, 0.5 mM ATP, 20 mM creatine phosphate, 3.2 mM MgCl2, 4 C; footprint: 12 mM Tris-HCl pH 7.5, 48 mM NaCl, 1.2 mM MgCl2, 37 C", "details": "protein: recombinant; tags: His tag removed by TEV; hairpin"}, "UP1(R75E/R88A)": {"target": "UP1(R75E/R88A) (UniProt P09651 1-196, R75E;R88A)", "sequence (P09651 1-196 R75E/R88A)": "as the sequence (P09651 1-196) above, with R75E, R88A counted along it", "assay": "ITC; N=1.08; ITC: 20 mM Na phosphate pH 6.5, 100 mM NaCl, no DTT, 25 C; EMSA: 100 mM KCl, 20% glycerol, 0.2 mM EDTA, 100 mM Tris pH 8.0, 0.5 mM DTT, 0.5 mM ATP, 20 mM creatine phosphate, 3.2 mM MgCl2, 4 C; footprint: 12 mM Tris-HCl pH 7.5, 48 mM NaCl, 1.2 mM MgCl2, 37 C", "details": "protein: recombinant; tags: His tag removed by TEV; single strand"}, "UP1(R75E/R88E)": {"target": "UP1(R75E/R88E) (UniProt P09651 1-196, R75E;R88E)", "sequence (P09651 1-196 R75E/R88E)": "as the sequence (P09651 1-196) above, with R75E, R88E counted along it", "assay": "ITC; N=1.1; ITC: 20 mM Na phosphate pH 6.5, 100 mM NaCl, no DTT, 25 C; EMSA: 100 mM KCl, 20% glycerol, 0.2 mM EDTA, 100 mM Tris pH 8.0, 0.5 mM DTT, 0.5 mM ATP, 20 mM creatine phosphate, 3.2 mM MgCl2, 4 C; footprint: 12 mM Tris-HCl pH 7.5, 48 mM NaCl, 1.2 mM MgCl2, 37 C", "details": "protein: recombinant; tags: His tag removed by TEV; single strand"}, "UP1 (hnRNP A1 RRM1-RRM2) [12]": {"target": "T2, UP1 (hnRNP A1 RRM1-RRM2)", "assay": "ITC; N=1.01; ITC: 20 mM Na phosphate pH 6.5, 100 mM NaCl, no DTT, 25 C; EMSA: 100 mM KCl, 20% glycerol, 0.2 mM EDTA, 100 mM Tris pH 8.0, 0.5 mM DTT, 0.5 mM ATP, 20 mM creatine phosphate, 3.2 mM MgCl2, 4 C; footprint: 12 mM Tris-HCl pH 7.5, 48 mM NaCl, 1.2 mM MgCl2, 37 C", "details": "protein: recombinant; tags: His tag removed by TEV; single strand"}, "UP1 (hnRNP A1 RRM1-RRM2) [13]": {"target": "T2, UP1 (hnRNP A1 RRM1-RRM2)", "assay": "ITC; N=1.06; ITC: 20 mM Na phosphate pH 6.5, 100 mM NaCl, no DTT, 25 C; EMSA: 100 mM KCl, 20% glycerol, 0.2 mM EDTA, 100 mM Tris pH 8.0, 0.5 mM DTT, 0.5 mM ATP, 20 mM creatine phosphate, 3.2 mM MgCl2, 4 C; footprint: 12 mM Tris-HCl pH 7.5, 48 mM NaCl, 1.2 mM MgCl2, 37 C", "details": "protein: recombinant; tags: His tag removed by TEV; single strand"}},
  "data": [
    {"binder": "GUGAAGUAGAUUAGC (structured_RNA)", "note": "[pri-mir-18a terminal loop RNA]", "values": [
      {"measurement": "binding result", "setting": "hnRNP A1 RRM1 [1]", "value": "no binding"},
      {"measurement": "binding result", "setting": "UP1 (hnRNP A1 RRM1-RRM2) [2]", "value": "binds"},
      {"measurement": "binding result", "setting": "hnRNP A1 RRM2 [3]", "value": "no binding"}
    ]},
    {"binder": "AGUAGAUUUUCA (ssRNA)", "note": "[12-mer-mut2]", "values": [
      {"measurement": "Kd", "setting": "UP1 (hnRNP A1 RRM1-RRM2) [4]", "value": "330 ± 26.5", "unit": "nM"}
    ]},
    {"binder": "UAGAUUAGCA (ssRNA)", "note": "[10-mer]", "values": [
      {"measurement": "Kd", "setting": "UP1 (hnRNP A1 RRM1-RRM2) [5]; single strand", "value": "19.1 ± 6.73", "unit": "nM"}
    ]},
    {"binder": "UUUAGAUUAGCA (ssRNA)", "note": "[12-mer-mut3]", "values": [
      {"measurement": "Kd", "setting": "UP1 (hnRNP A1 RRM1-RRM2) [6]", "value": "8.33 ± 1.35", "unit": "nM"}
    ]},
    {"binder": "AGUAGAU (ssRNA)", "note": "[7-mer]", "values": [
      {"measurement": "Kd", "setting": "hnRNP A1 RRM2 [7]", "value": "6800 ± 140", "unit": "nM"},
      {"measurement": "Kd", "setting": "UP1 (hnRNP A1 RRM1-RRM2) [8]", "value": "3400 ± 120", "unit": "nM"},
      {"measurement": "Kd", "setting": "hnRNP A1 RRM1 [9]", "value": "20400 ± 1060", "unit": "nM"}
    ]},
    {"binder": "B1", "values": [
      {"measurement": "Kd", "setting": "UP1 (hnRNP A1 RRM1-RRM2) [10]", "value": "148 ± 8.9", "unit": "nM"}
    ]},
    {"binder": "GGUGAAGUAGAUUAGCC (structured_RNA)", "note": "[17-mer]", "values": [
      {"measurement": "binding result", "setting": "UP1 (hnRNP A1 RRM1-RRM2) [11]", "value": "binds"}
    ]},
    {"binder": "AGUAGAUUAGCA (ssRNA)", "note": "[12-mer]", "values": [
      {"measurement": "Kd", "setting": "UP1(R75E/R88A)", "value": "19 ± 2.05", "unit": "nM"},
      {"measurement": "Kd", "setting": "UP1(R75E/R88E)", "value": "40.1 ± 4.4", "unit": "nM"},
      {"measurement": "Kd", "setting": "UP1 (hnRNP A1 RRM1-RRM2) [12]", "value": "15.5 ± 3.4", "unit": "nM"}
    ]},
    {"binder": "AGUUUAUUAGCA (ssRNA)", "note": "[12-mer-mut1]", "values": [
      {"measurement": "Kd", "setting": "UP1 (hnRNP A1 RRM1-RRM2) [13]", "value": "154 ± 11", "unit": "nM"}
    ]},
    {"binder": "GGUGAAGUAGAUUCGCC (structured_RNA)", "note": "[17-mer(A35C)]", "values": [
      {"measurement": "Kd", "setting": "UP1 (hnRNP A1 RRM1-RRM2) [5]; hairpin", "value": "3100 ± 190", "unit": "nM"}
    ]}
  ]
}
